Measurements as given in publication PMC3547035, “Investigating the Antiproliferative Activity of High Affinity DNA Aptamer on Cancer Cells”.

Experiments:
VEGF165 = VEGF165 (Homo sapiens, UniProt P15692-4 27-191); test: SPR; SPR BIAcore 2000, CM5 chip, immobilized protein ~200 RU, PBS + Tween-20 running buffer (pH not stated), 25 C, aptamer 0.2-100 nM, 1:1 Langmuir fit; conditions: protein: recombinant; tags: carrier free; chain copies: 2; hairpin (CD)
VEGF121 = VEGF121 (Homo sapiens, UniProt P15692-9 27-147); test: as above; conditions: protein: recombinant; tags: carrier free; chain copies: 2; hairpin (CD)
Sequence of VEGF121 (P15692 other isoform, or with tags, fused parts or gaps): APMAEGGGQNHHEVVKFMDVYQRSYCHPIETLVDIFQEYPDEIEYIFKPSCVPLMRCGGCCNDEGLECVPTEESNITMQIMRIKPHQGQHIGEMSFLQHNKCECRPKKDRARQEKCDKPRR

Sequence of VEGF165 (P15692 other isoform, or with tags, fused parts or gaps): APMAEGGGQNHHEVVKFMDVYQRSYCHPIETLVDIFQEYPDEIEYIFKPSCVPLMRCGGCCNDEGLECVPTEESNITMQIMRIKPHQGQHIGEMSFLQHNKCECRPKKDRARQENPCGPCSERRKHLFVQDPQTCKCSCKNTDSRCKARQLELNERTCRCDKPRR

Question: How did the Kd (VEGF165) turn out when CAATTGGGCCCGTCCGTATGGTGGGT (XNA, phosphorothioate linkages C1*A2 and G25*T26) [PS-modified SL2-B] was run?
Answer: 0.00056 ± 0.00044 µM

Question: And the Kd (VEGF121)?
Answer: 17 ± 1.24 µM
